Results reported in article PMC6972931, “YqfB protein from Escherichia coli: an atypical amidohydrolase active towards N^4-acylcytosine derivatives” (Scientific Reports, 2020).

Columns and labels:
Assay in all cases: spectrophotometric hydrolysis assay, fit with product inhibition
Assay type in all cases: biochemical, Escherichia coli
Settings in all cases: 50 mM potassium phosphate, pH 8.0, 22 °C
[1] = test system: T1, CC(=O)Nc1ccn([C@@H]2O[C@H](CO)[C@@H](O)[C@H]2O)c(=O)n1
T1 construct: full length (103 residues), C-terminal His6 kept, pET21b, expressed in E. coli BL21(DE3) yqfB::Km, monomer
Excerpt: (§1) spectrophotometric hydrolysis assay, fit with product inhibition on YqfB with a C-terminal His6 tag

[2] = test system: T2, CC(=O)Nc1cc[nH]c(=O)n1
T2 construct: full length (103 residues), C-terminal His6 kept, pET21b, expressed in E. coli BL21(DE3) yqfB::Km, monomer
Excerpt: as §1

[3] = substrate: CC(=O)Nc1ccn([C@@H]2O[C@H](CO)[C@@H](O)[C@H]2O)c(=O)n1
Excerpt: as §1

[4] = substrate: CC(=O)Nc1cc[nH]c(=O)n1
Excerpt: as §1

[5] = substrate: CC(=O)Nc1nc(O)ncc1F
Excerpt: as §1

[6] = substrate: CC(C)C(=O)Nc1ccn([C@H]2C[C@H](O)[C@@H](CO)O2)c(=O)n1
Excerpt: as §1

[7] = substrate: O=C(Nc1ccn([C@H]2C[C@H](O)[C@@H](CO)O2)c(=O)n1)c1ccccc1
Excerpt: as §1

[8] = substrate: O=C(Nc1ccn([C@@H]2O[C@H](CO)[C@@H](O)[C@H]2O)c(=O)n1)c1ccccc1
Excerpt: as §1

[9] = substrate: CCCCCOC(=O)Nc1nc(=O)n([C@@H]2O[C@H](C)[C@@H](O)[C@H]2O)cc1F
Excerpt: as §1

[10] = substrate: CC(=O)Nc1ccn([C@H]2C[C@H](O)[C@@H](CO)O2)c(=O)n1
Excerpt: as §1

[11] = substrate: CCCCCC(=O)Nc1ccn([C@H]2C[C@H](O)[C@@H](CO)O2)c(=O)n1
Excerpt: as §1

[12] = substrate: CC(=O)Nc1ccn([C@@H]2O[C@H](CO)[C@@H](O)[C@H]2O)c(=O)n1; remark: listed apart in the source
Excerpt: spectrophotometric hydrolysis assay, fit with product inhibition on recombinant wild-type YqfB (tag-free)

[13] = substrate: CC(=O)Nc1ccn([C@@H]2O[C@H](CO)[C@@H](O)[C@H]2O)c(=O)n1; remark: listed apart in the source
Excerpt: spectrophotometric hydrolysis assay, fit with product inhibition on recombinant YqfB with an N-terminal His6 tag

**Q.** For “YqfB with a C-terminal His6 tag (Escherichia coli K-12; Y89A)”, which Km [1] is on record?
**A.** (2.2 ± 0.06) × 10^−3 M

**Q.** What about the kcat [1] of the same molecule?
**A.** 40 ± 1.3 s⁻¹

**Q.** And the kcat/Km [1]?
**A.** 19000 ± 900 M⁻¹ s⁻¹

**Q.** Which results are given for “YqfB with a C-terminal His6 tag (Escherichia coli K-12; D27A)”?
**A.** Km [1]: (2.9 ± 0.11) × 10^−4 M; kcat [1]: 300 ± 16 s⁻¹; kcat/Km [1]: 1.2e+06 ± 10000 M⁻¹ s⁻¹

**Q.** How did the Km [1] turn out when “YqfB with a C-terminal His6 tag (Escherichia coli K-12; H70A)” was run?
**A.** (5.0 ± 0.02) × 10^−5 M

**Q.** What about the kcat [1] of the same molecule?
**A.** 23 ± 0.029 s⁻¹

**Q.** And the kcat/Km [1]?
**A.** 400000 ± 2000 M⁻¹ s⁻¹

**Q.** What does the source list for “YqfB with a C-terminal His6 tag (Escherichia coli K-12; E74A)”?
**A.** Km [2]: (3.0 ± 0.02) × 10^−4 M; kcat [2]: 0.22 ± 0.001 s⁻¹; kcat/Km [2]: 700 ± 4 M⁻¹ s⁻¹; Km [1]: (2.0 ± 0.03) × 10^−6 M; kcat [1]: 0.07 ± 0.0006 s⁻¹; kcat/Km [1]: 30000 ± 500 M⁻¹ s⁻¹

B1: YqfB with a C-terminal His6 tag (Escherichia coli K-12) (protein)
chain: MQPNDITFFQRFQDDILAGRKTITIRDESESHFKTGDVLRVGRFEDDGYFCTIEVTATSTVTLDTLTEKHAEQENMTLTELKKVIADIYPGQTQFYVIEFKCL
notes: full length (103 residues), C-terminal His6 kept, pET21b, expressed in E. coli BL21(DE3) yqfB::Km, monomer
**Q.** For B1, which Km [3] is on record?
**A.** (6.2 ± 0.1) × 10^−5 M

**Q.** And the kcat [3]?
**A.** 157 ± 1 s⁻¹

**Q.** And the kcat/Km [3]?
**A.** 2.2e+06 ± 100000 M⁻¹ s⁻¹

**Q.** And the Km [4]?
**A.** (7.0 ± 0.2) × 10^−5 M

**Q.** What about the Km [5] of the same molecule?
**A.** (2.1 ± 0.2) × 10^−3 M

**Q.** What about the kcat [5] of the same molecule?
**A.** 90 ± 7 s⁻¹

**Q.** And the kcat/Km [5]?
**A.** 40000 ± 3000 M⁻¹ s⁻¹

**Q.** And the Km [6]?
**A.** (1.9 ± 0.08) × 10^−3 M

**Q.** And the kcat [6]?
**A.** 75 ± 3 s⁻¹

**Q.** What about the kcat/Km [6] of the same molecule?
**A.** 37500 ± 600 M⁻¹ s⁻¹

**Q.** What about the Km [7] of the same molecule?
**A.** (3.00 ± 0.01) × 10^−4 M

**Q.** What about the kcat [7] of the same molecule?
**A.** 0.07 ± 0.01 s⁻¹

**Q.** What about the kcat/Km [7] of the same molecule?
**A.** 230 ± 10 M⁻¹ s⁻¹

**Q.** And the Km [8]?
**A.** (5.1 ± 0.03) × 10^−3 M

**Q.** And the Km [9]?
**A.** (7.0 ± 0.2) × 10^−4 M

**Q.** And the kcat [9]?
**A.** 0.016 ± 0.003 s⁻¹

**Q.** And the kcat/Km [9]?
**A.** 22 ± 0.1 M⁻¹ s⁻¹

**Q.** And the Km [10]?
**A.** (4.00 ± 0.04) × 10^−4 M

**Q.** What about the kcat [10] of the same molecule?
**A.** 101 ± 1 s⁻¹

**Q.** And the kcat/Km [10]?
**A.** 230000 ± 2000 M⁻¹ s⁻¹

**Q.** And the Km [11]?
**A.** (1.4 ± 0.1) × 10^−4 M

B2: recombinant wild-type YqfB (tag-free) (Escherichia coli K-12) (protein)
chain: B1 chain
notes: full length (103 residues), no tag, pET21b-yqfB
**Q.** How did the Km [12] turn out when B2 was run?
**A.** (7.0 ± 0.1) × 10^−5 M

**Q.** And the kcat [12]?
**A.** 196 ± 1 s⁻¹

**Q.** What about the kcat/Km [12] of the same molecule?
**A.** 2.8e+06 ± 300000 M⁻¹ s⁻¹

B3: recombinant YqfB with an N-terminal His6 tag (Escherichia coli K-12) (protein)
chain: B1 chain
notes: full length (103 residues), N-terminal His6 kept, pETDuet-1, expressed in E. coli BL21(DE3) yqfB::Km
**Q.** For B3, which Km [13] is on record?
**A.** (7.0 ± 0.1) × 10^−5 M

**Q.** What about the kcat [13] of the same molecule?
**A.** 154 ± 3 s⁻¹

**Q.** And the kcat/Km [13]?
**A.** 2.5e+06 ± 200000 M⁻¹ s⁻¹
